Data from article doi:10.1101/2024.09.13.612588 (bioRxiv, 2024).

Molecular target: the molecule itself
Assay: high-speed AFM

B1: Toll/interleukin-1 receptor domain of MyD88 (TIR_(MyD88)), wild type (domain or fragment)
chain: PLGHMPERFDAFICYCPSDIQFVQEMIRQLEQTNYRLKLCVSDRDVLPGTCVWSIASELIEKRCRRMVVVVSDDYLQSKECDFQTKFALSLSPGAHQKRLIPIKYKAMKKEFPSILRFITVCDYTNPCTKSWFWTRLAKALSLP
**Q.** Which “stoichiometry N” value does the source give for B1 here?
**A.** 58 subunits
